Target: T1, PbC2H2.K16.2 (pear, UniProt UPI0005117FCC 5-185)
T1 sequence: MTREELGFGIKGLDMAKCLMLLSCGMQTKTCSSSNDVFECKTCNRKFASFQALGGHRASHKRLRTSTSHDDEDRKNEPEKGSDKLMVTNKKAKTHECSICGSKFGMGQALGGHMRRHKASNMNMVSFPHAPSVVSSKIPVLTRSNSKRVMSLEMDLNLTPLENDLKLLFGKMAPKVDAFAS
Assay: EMSA; 10x and 100x cold probe weakens signal; Buffer, salt, pH and temperature not stated; EMSA per Guo et al. 2021, MST per Singh et al. 2014 (Monolith NT.115)
Conditions: protein: recombinant; tags: His; label: 5' biotin (EMSA)

B1: PbCOB.A.2 promoter probe (PbC2H2.K16.2) (dsDNA)
DNA 1: TAAAAACATGATTGGTCCAATGCAAGTTAT
DNA 2: ATAACTTGCATTGGACCAATCATGTTTTTA
- binding result: binds

B2: PbCOB.A.1 promoter probe (dsDNA)
DNA 1: TTCGAGGTTTTTGGTCCAGAAAGAAGAAGA
DNA 2: TCTTCTTCTTTCTGGACCAAAAACCTCGAA
- binding result: binds

— article PMC10691131, “Self S-RNase reduces the expression of two pollen-specific COBRA genes to inhibit pollen tube growth in pear”
